Reference: PMC11258689, “A Snake Venom Peptide and Its Derivatives Prevent Aβ42 Aggregation and Eliminate Toxic Aβ42 Aggregates In Vitro” (ACS Chemical Neuroscience, 2024)
No end group written: not given here.

Legend:
Settings in all cases: both partners purified
amyloid-β (1–42) [1] = molecular target: T1, amyloid-β (1–42) (UniProt P05067 672-713); experiment: SPR; Biacore T200; Aβ42 immobilised on a CM-5 chip by amine coupling (900 RU); peptides as analytes 50 to 0.02 μM; 10 mM HEPES + 50 mM NaCl + 0.05% Tween 20, 25 °C, 30 μL/min; multicycle; steady-state affinity model
T1 construct: also called Aβ42; Aβ (1–42); source: bought: Bachem (Bubendorf, Switzerland); suspended in HFIP, lyophilized

amyloid-β (1–42) [2] = molecular target: T1, amyloid-β (1–42); experiment: as above; remark: listed apart in the source
amyloid-β (1–42) [3] = molecular target: T1, amyloid-β (1–42); experiment: SPR; Biacore T200; CDP-1 immobilised by amine coupling (1916.5 RU); Aβ42 as analyte 1.85 to 0.02 μM; 10 mM HEPES + 50 mM NaCl + 0.05% Tween 20, 25 °C; multicycle; methods: 1:1 kinetic fit with global Rmax (the table's head says steady-state fitting)

B1: crotamine derivative peptide CDP-6 (peptide)
peptide: Ac-KMDSRWRWKCSKK
modifications: not fully specified (C-terminus); also: methylated at the C-terminus
notes: positions worked out from Lys27–Lys39; […]; L-amino acids; source: synthetic peptide (Genscript, purity >95%)
Kd (amyloid-β (1–42) [1]): 26.4 µM

B2: crotamine derivative peptide CDP-2 (peptide)
peptide: Ac-KMDSRWRWKSSKK
modifications: not fully specified (C-terminus); also: methylated at the C-terminus
notes: […]; L-amino acids; source: synthetic peptide (Genscript, purity >95%)
Kd (amyloid-β (1–42) [2]): 3.25 µM

B3: crotamine derivative peptide CDP-1 (peptide)
peptide: KMDCRWRWKCCKK
modifications: acetylated at the N-terminus; methylated at the C-terminus
notes: crotamine of Crotalus durissus terrificus venom, Lys27 to Lys39; […]; L-amino acids; For SPR this peptide was immobilised by amine coupling (1916.5 RU); also called crotamine (Lys27–Lys39); mother L-peptide CDP-1; source: synthetic peptide (Genscript, purity >95%)
Kd (amyloid-β (1–42) [3]): 410 nM
